In US20180230236A1 one finds % cells with label (after chimera supernatant), loss of mast cells carrying IgE and affinity data, which are given here for one molecule.

The target in assay [1] is canine IgE (canine monoclonal IgE from mouse x dog heterohybridoma cell line 2.39) (canine). Kind of assay: flow cytometry; C2 cells loaded with APC-canine IgE, then supernatant of chimera-transfected HEK 293 for 60 min at room temperature; displacement of IgE from FcεRI.
Assay [2] has the same target. The assay can be described thus: flow cytometry; displacement of APC-canine IgE from FcεRI on C2 cells by chimera supernatant. (In general: A flow cytometer gives signals particle by particle.)
Assay [3] has the same target. Kind of assay: affinity estimated from titration to end signal on IgE coated ELISA microtiter plates.

canine IgE (canine monoclonal IgE from mouse x dog heterohybridoma cell line 2.39) (canine), sequence (P25054 whole entry): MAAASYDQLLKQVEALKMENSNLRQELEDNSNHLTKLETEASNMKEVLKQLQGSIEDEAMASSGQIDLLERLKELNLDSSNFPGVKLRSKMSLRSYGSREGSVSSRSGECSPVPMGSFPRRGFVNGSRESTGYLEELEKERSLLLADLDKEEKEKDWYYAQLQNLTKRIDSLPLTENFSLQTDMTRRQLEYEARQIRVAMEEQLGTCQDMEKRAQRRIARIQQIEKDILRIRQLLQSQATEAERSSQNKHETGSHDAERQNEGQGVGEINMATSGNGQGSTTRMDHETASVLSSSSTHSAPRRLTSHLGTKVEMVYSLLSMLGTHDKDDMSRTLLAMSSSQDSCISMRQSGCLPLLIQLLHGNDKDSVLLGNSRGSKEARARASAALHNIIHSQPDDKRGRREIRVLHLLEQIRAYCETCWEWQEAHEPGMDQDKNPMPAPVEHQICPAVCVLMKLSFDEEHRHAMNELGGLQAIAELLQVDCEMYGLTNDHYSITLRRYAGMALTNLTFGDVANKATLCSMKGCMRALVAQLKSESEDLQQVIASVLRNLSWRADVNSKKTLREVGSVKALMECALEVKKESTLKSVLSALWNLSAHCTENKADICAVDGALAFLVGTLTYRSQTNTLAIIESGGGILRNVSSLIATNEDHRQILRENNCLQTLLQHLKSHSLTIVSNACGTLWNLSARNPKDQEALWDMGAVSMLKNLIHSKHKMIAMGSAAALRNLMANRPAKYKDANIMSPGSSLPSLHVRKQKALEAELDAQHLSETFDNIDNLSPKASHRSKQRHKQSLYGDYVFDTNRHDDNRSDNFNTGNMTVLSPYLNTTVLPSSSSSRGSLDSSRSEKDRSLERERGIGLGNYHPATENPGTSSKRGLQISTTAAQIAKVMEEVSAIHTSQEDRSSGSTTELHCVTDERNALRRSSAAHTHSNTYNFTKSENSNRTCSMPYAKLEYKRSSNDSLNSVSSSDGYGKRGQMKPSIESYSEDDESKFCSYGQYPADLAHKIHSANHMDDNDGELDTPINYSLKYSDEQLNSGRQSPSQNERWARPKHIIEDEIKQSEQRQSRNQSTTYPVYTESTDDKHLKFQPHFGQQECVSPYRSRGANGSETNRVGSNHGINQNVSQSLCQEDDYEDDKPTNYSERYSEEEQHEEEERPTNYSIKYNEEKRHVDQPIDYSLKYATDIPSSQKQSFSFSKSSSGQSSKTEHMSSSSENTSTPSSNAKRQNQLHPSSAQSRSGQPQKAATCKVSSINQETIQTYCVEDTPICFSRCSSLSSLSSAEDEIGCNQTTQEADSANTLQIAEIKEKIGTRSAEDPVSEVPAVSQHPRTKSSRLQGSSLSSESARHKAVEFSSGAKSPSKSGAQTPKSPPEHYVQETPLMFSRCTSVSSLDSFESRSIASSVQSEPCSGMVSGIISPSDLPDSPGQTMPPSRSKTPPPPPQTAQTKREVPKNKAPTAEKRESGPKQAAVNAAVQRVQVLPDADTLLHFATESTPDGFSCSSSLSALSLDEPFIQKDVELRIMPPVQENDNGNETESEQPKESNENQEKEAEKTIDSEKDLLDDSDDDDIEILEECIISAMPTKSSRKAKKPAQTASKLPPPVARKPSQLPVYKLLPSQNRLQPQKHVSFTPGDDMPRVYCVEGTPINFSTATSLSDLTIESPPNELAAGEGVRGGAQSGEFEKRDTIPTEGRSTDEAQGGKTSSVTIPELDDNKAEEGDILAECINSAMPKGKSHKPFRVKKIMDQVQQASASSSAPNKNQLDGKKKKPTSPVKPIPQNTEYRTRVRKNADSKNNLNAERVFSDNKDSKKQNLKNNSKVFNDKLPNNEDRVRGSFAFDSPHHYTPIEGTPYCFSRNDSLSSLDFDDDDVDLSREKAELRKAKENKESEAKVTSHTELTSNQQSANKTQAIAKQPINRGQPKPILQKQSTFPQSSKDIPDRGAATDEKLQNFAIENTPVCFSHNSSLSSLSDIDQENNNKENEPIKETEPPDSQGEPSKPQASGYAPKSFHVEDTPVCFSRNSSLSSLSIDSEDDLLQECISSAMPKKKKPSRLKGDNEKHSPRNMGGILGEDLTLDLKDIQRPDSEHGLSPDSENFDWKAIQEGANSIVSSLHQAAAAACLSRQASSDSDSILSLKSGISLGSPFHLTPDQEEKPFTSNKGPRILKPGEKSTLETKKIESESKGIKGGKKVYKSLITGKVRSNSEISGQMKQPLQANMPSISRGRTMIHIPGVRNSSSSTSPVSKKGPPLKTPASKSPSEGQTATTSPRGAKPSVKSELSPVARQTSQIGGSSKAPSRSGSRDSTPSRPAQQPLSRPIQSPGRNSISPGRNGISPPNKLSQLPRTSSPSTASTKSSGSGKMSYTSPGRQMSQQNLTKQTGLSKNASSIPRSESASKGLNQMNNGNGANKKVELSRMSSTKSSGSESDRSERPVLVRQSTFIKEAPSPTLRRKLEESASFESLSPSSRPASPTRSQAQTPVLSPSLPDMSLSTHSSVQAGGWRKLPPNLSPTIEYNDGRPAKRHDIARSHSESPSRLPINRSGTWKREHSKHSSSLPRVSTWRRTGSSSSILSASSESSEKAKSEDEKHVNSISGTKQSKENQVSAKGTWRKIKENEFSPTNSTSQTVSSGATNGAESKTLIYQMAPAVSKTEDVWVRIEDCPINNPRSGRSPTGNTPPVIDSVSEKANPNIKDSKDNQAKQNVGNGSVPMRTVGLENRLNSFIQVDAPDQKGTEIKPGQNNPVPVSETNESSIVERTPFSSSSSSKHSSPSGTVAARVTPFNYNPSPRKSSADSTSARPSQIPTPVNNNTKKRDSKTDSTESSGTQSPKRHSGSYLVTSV

B1: chimera of canine FcεRI alpha chain x scFv-5.91 (protein)
chain: DTLKPTVSMNPPWNTILKDDSVTLTCTGNNSLEVDSAVWLHNNTTLQETTSRLDINKAQIQDSGEYRCRENRSILSDPVYLTVFTEWLILQASANVVMEGESFLIRCHSWKNLRLTKVTYYKDGIPIRYWYENFNISISNVTTKNSGNYSCSGQIQQKGYTSKVLNIIVKKEPTKQNKYSGLQGGGGSGGGGSGGGGSEVQLQQSGPELVKPGASMKISCKASGYSITGYTIHWVKQSHGKNLEWIGLINPYTGGITYNQNFKGKATLTVDKSSSTAYMELLSLTSEDSAVYYCSRGPYGNFYAMDYWGQGTSVTVSSGGGGSGGGGSGGGGSDIQMTQSPASLSASVGETVTITCRASGNIHNYLAWYQQKQGKSPQLLVYNAKTLADSVPSRFSGSGSGTQFSLKINSLQPEDFGSYYCQHFWSTPYTFGGGTKLEIKRA
In the case of B1, the % cells with label (after chimera supernatant) in assay [1] was determined as 4.11%. The molecule also displayed a loss of mast cells carrying IgE in assay [2] of more than 50%. Also, the affinity in assay [3] was 100 pM.
